# Source: patent US20260209320A1
# T1: Peptide 23 (cyno)
# T1 sequence (peptide): QQQQQQQQQQPPPPP
# T2: Peptide 27 (cyno)
# T2 sequence (peptide): PPPPPPPPPPPPQLP
# T3: Peptide 19 (cyno)
# T3 sequence (peptide): PQAQPMLPQPQPPPP
# T4: Peptide 5 (human)
# T4 sequence (peptide): QQQPPPPPPPPPPPQ
# T5: Peptide 41 (mouse)
# T5 sequence (peptide): PPQPPPQGQPPPPPP
# T6: Peptide 20 (cyno)
# T6 sequence (peptide): QAQPMLPQPQPPPPP
# T7: Peptide 14 (human, cyno)
# T7 sequence (peptide): PQPQPPPPPPPPPPG
# T8: Peptide 15 (human, cyno)
# T8 sequence (peptide): QPQPPPPPPPPPPGP
# T9: Peptide 6 (human)
# T9 sequence (peptide): QQPPPPPPPPPPPQL
# Assays:
# [1] = molecular target: T1, Peptide 23 (cyno); experiment: peptide microarray; Sp C2; IgG 10 µg/ml
# [2] = molecular target: T2, Peptide 27 (cyno); experiment: peptide microarray; Sp C2; IgG 10 µg/ml
# [3] = molecular target: T3, Peptide 19 (cyno); experiment: peptide microarray; Sp C1; IgG 10 µg/ml
# [4] = molecular target: T3, Peptide 19 (cyno); experiment: peptide microarray; Sp C1; IgG 1 µg/ml
# [5] = molecular target: T1, Peptide 23 (cyno); experiment: peptide microarray; Sp C2; IgG 1 µg/ml
# [6] = molecular target: T2, Peptide 27 (cyno); experiment: peptide microarray; Sp C2; IgG 1 µg/ml
# [7] = molecular target: T4, Peptide 5 (human); experiment: peptide microarray; Sp H; IgG 10 µg/ml
# [8] = molecular target: T5, Peptide 41 (mouse); experiment: peptide microarray; Sp M; IgG 10 µg/ml
# [9] = molecular target: T4, Peptide 5 (human); experiment: peptide microarray; Sp H; IgG 1 µg/ml
# [10] = molecular target: T5, Peptide 41 (mouse); experiment: peptide microarray; Sp M; IgG 1 µg/ml
# [11] = molecular target: T6, Peptide 20 (cyno); experiment: peptide microarray; Sp C2 (second of two rows printed SEQ ID NO: 73); IgG 10 µg/ml
# [12] = molecular target: T7, Peptide 14 (human, cyno); experiment: peptide microarray; Sp C2; IgG 10 µg/ml
# [13] = molecular target: T8, Peptide 15 (human, cyno); experiment: peptide microarray; Sp C2; IgG 10 µg/ml
# [14] = molecular target: T6, Peptide 20 (cyno); experiment: peptide microarray; Sp C1; IgG 10 µg/ml
# [15] = molecular target: T6, Peptide 20 (cyno); experiment: peptide microarray; Sp C2 (first of two rows printed SEQ ID NO: 73); IgG 10 µg/ml
# [16] = molecular target: T6, Peptide 20 (cyno); experiment: peptide microarray; Sp C1; IgG 1 µg/ml
# [17] = molecular target: T7, Peptide 14 (human, cyno); experiment: peptide microarray; Sp C2; IgG 1 µg/ml
# [18] = molecular target: T8, Peptide 15 (human, cyno); experiment: peptide microarray; Sp C2; IgG 1 µg/ml
# [19] = molecular target: T9, Peptide 6 (human); experiment: peptide microarray; Sp H; IgG 10 µg/ml
# [20] = molecular target: T7, Peptide 14 (human, cyno); experiment: peptide microarray; Sp H; IgG 10 µg/ml
# [21] = molecular target: T8, Peptide 15 (human, cyno); experiment: peptide microarray; Sp H; IgG 10 µg/ml
# [22] = molecular target: T9, Peptide 6 (human); experiment: peptide microarray; Sp H; IgG 1 µg/ml
# [23] = molecular target: T7, Peptide 14 (human, cyno); experiment: peptide microarray; Sp H; IgG 1 µg/ml
# [24] = molecular target: T8, Peptide 15 (human, cyno); experiment: peptide microarray; Sp H; IgG 1 µg/ml
# [25] = molecular target: T6, Peptide 20 (cyno); experiment: peptide microarray; Sp C2 (second of two rows printed SEQ ID NO: 73); IgG 1 µg/ml
# [26] = molecular target: T6, Peptide 20 (cyno); experiment: peptide microarray; Sp C2 (first of two rows printed SEQ ID NO: 73); IgG 1 µg/ml
binder,measurement,setting,value
"ATL_0005335 (antibody, V domains shown) VH: EVQLVESGGGLVKPGGSLRLSCAASGFTFNKAWMNWVRQAPGKGLEWVGRIKSGIDGGTTDYAAPVQGRFTISRDDSKNTVYLQMNSLNTEDTAVYYCIPPPYYYYYGLDVWGQGTTVTVSS VL: QSALTQPASVSGSPGQSITISCTGTSSDIGSYNLVSWYQQHPGNAPKPLIYEGSKRPSGVSARFSGSKSGNTASLTISGLQPEDEADYYCSSYAGFNTLVFGGGTKVTVL",corrected fluorescence intensity,[1],524
same,corrected fluorescence intensity,[2],604
same,corrected fluorescence intensity,[3],453
same,corrected fluorescence intensity,[4],79
same,corrected fluorescence intensity,[5],0
same,corrected fluorescence intensity,[6],0
same,corrected fluorescence intensity,[7],593
same,corrected fluorescence intensity,[8],0
same,corrected fluorescence intensity,[9],0
same,corrected fluorescence intensity,[10],256
"ATL_0005331 (antibody, V domains shown) VH: EVQLVESGGGLVKPGGSLRLSCAASGFTFNKAWMNWVRQAPGKGLEWVGRIKSGIDGGTTDYAAPVQGRFTISRDDSKNTVYLQMNSLNTEDTAVYYCIPPPYYYYYGLDVWGQGTTVTVSS VL: QSALTQPRSVSGSPGQSITISCTGTSSDVGSYNLVSWFQQHPGKAPKLIIYEVNKRPSGVPDRFSGSKSGNTASLTVSGLQAEDEADYYCGSYAGTNNVFGTGTKLTVL",corrected fluorescence intensity,[11],0
same,corrected fluorescence intensity,[2],321
same,corrected fluorescence intensity,[12],464
same,corrected fluorescence intensity,[13],478
same,corrected fluorescence intensity,[14],504
same,corrected fluorescence intensity,[15],0
same,corrected fluorescence intensity,[16],178
same,corrected fluorescence intensity,[6],99.2
same,corrected fluorescence intensity,[17],45.5
same,corrected fluorescence intensity,[18],50
same,corrected fluorescence intensity,[19],397
same,corrected fluorescence intensity,[7],382
same,corrected fluorescence intensity,[20],412
same,corrected fluorescence intensity,[21],382
same,corrected fluorescence intensity,[22],0
same,corrected fluorescence intensity,[9],0
same,corrected fluorescence intensity,[23],84
same,corrected fluorescence intensity,[24],134
same,corrected fluorescence intensity,[25],51.5
same,corrected fluorescence intensity,[26],0
